± gives the standard deviation of the averaged measurements.
Experiments:
[1] = sfGFP reporter fluorescence (15 h) (µM FITC); higher = higher leak; conditions: library round: Round 0; ligand: none
Experimental: (§1)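 Cell-free (BL21 Star DE3 extract, PANOx-SP) biosensing: 1 µL Echo-assembled reactions with linear PbrR variant templates (5 nM) and pPbrR-sfGFP reporter, with 1 µM Pb (lead chloride), 30 µM Zn (zinc acetate) or no ligand; endpoint sfGFP fluorescence after 15 h at 30 °C, calibrated as µM FITC. Round 0 library (alanine scan, site saturation, combinatorial) of PbrR from Cupriavidus metallidurans; 2 biological replicates.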

[2] = sfGFP reporter fluorescence (15 h) (µM FITC); higher = stronger transcriptional activation; conditions: library round: Round 0
Experimental: as §1

## MNIQIGELAKRTACPVVTIRFYEQEGLLPPPGRSRGNFRLYGEEHVERLQFIRHCRSLDMPLSDVRTLLSYRKRPDQDCGEVNMLLDEHIRQVESRIGALLELKHHLVELREACSGARPAQSCGILQGLSDCVCDTRGTTAHPSDA [*146A]
[1]
  sfGFP reporter fluorescence: 0.06121 ± 0.00052
[2]; ligand: 1 µM Pb
  sfGFP reporter fluorescence: 0.0918 ± 0.006
[2]; ligand: 30 µM Zn
  sfGFP reporter fluorescence: 0.671 ± 0.0096

Source: the supplement of paper PMC12783771
